Usually Kd stands for the equilibrium constant for the complex coming apart. A high value points to a looser complex.

In test [1] the target is A/Texas/37/2024 (H5N1) HA (Influenza A virus A/Texas/37/2024 (H5N1), strain). Nature of the test: BLI. Particulars: both partners purified.
Another test has as its target T1, A/USSR/90/1977 (H1N1) HA (Influenza A virus A/USSR/90/1977 (H1N1), UniProt P03453, strain).
T1 construct: source: bought: Sino Biological
Nature of the test: ELISA. Particulars: one partner purified. (In general: ELISA stands for enzyme-linked immunosorbent assay.)

Test [2] deals with T2, A/Taiwan/01/1986 (H1N1) HA (Influenza A virus A/Taiwan/1/1986 (H1N1), UniProt F5CU03, strain).
T2 construct: source: bought: Sino Biological
Nature of the test: ELISA. To be noted: one partner purified.

In test [3] the target is T3, A/Solomon Islands/3/2006 (H1N1) HA (influenza A virus A/Solomon …). Nature of the test: ELISA. Particulars: one partner purified.
In test [4] the target is T4, A/California/07/2009 (H1N1) HA (Influenza A virus A/California/07/2009 …, UniProt C3W5X2, strain).
T4 construct: source: bought: BEI Resources (NR-42635)
Nature of the test: ELISA. Particulars: one partner purified.

Test [5] has as its target T5, A/Michigan/45/2015 (H1N1) HA (Influenza A virus A/Michigan/45/2015 …, UniProt A0A1J0CXU0, strain). Nature of the test: BLI. To be noted: both partners purified.
Test [6] deals with T3, A/Solomon Islands/3/2006 (H1N1) HA. Nature of the test: cryo-EM structure. Particulars: both partners purified.
Test [7] has as its target A/Beijing/262/1995 (H1N1) HA (Influenza A virus A/Beijing/262/1995 …, UniProt B4UPF7, strain). Put plainly: ELISA. To be noted: one partner purified.
Test [8] concerns the target T5, A/Michigan/45/2015 (H1N1) HA. Nature of the test: ELISA. Particulars: one partner purified.
The target in test [9] is T6, A/Japan/305/1957 (H2N2) HA (Influenza A virus A/Japan/305/1957 …, UniProt Q0A2X3, strain).
T6 construct: source: Sf9, baculovirus, purified from supernatant (Ni Sepharose Excel, SEC)
Put plainly: ELISA. To be noted: one partner purified.

A value given as a limit tells only on which side of the number the result lay.

B1: HB31 wild type (WT) Fab (Fab, V domains shown)
VH: EVQLLESGGGLVQPGGSLRLSCTVSGFTSSNYDMSWVRQAPGKGLEWVSGISGTGRDTYYADSVKGRFTISRDNSKNTLSLQMNSLRADDTAVYFCARDRPVLRYFDWQPYGLDVWGKGTTVTVSS
VL: QSALTQPPSASGSPGQSVTISCTGTSSDVGGYNYVSWYQQYPSKAPKLMIYEVSKRPSGVPDRFSGSKSGNTASLTVSGLQAEDEADYYCNSYAGSNLYVFGTGTKVTVL
notes: also called HB31 WT Fab; HB31 Fab; source: Expi293F, transiently co-transfected, purified (CaptureSelect CH1-XL)
Consider B1, for which, in test [1], the affinity, expressed as Kd, was 4.5 nM.

B2: HB31 wild type (WT) IgG (antibody, V domains shown)
VH: B1 VH
VL: B1 VL
notes: copies: 2 + 2
Consider B2, for which, in test [1], the Kd came out at 1.6 nM.

B3: HB31 (IgG format) (antibody, V domains shown)
VH: B1 VH
VL: B1 VL
notes: also called HB31 wild type; WT
Regarding B3, the binding result (in the test with A/USSR/90/1977 (H1N1) HA; in test [2]; in [3]; in test [4]) was “binds” in each case.

B4: HB34 Fab (Fab, V domains shown)
VH: B1 VH
VL: QSALTQPASVSGSPGQSITISCTGTSSDVGSYNLVSWYQQHPGKAPKLMIYEGSQRPSGVSNRFSGSKSGNTASLTISGLQAEDEADYYCCSYASSTSYVFGTGTKVTVL
As for B4, the binding result in [5] and in [6] was “binds” throughout.

B5: HB34 (IgG format) (antibody, V domains shown)
VH: B1 VH
VL: B4 VL
On to B5, for which the binding result (in the test with A/USSR/90/1977 (H1N1) HA; in test [7]; in test [2]; in test [8]; in [3]; in test [4]) was “binds” throughout.

B6: HB31 Fab (Fab, V domains shown)
VH: B1 VH
VL: B1 VL
Consider B6, for which the binding result in [5] and in [6] was “binds” each time.

B7: HB315 (IgG format) (antibody, V domains shown)
VH: EVQLLESGGGLAQPGGSLRLSCTASGFTFSNFAMNWVRQAPGKGLEWVSFINSGSGSTYYADSVKGRFTISRDNSENTLFLQMNSLRAEDTAVYYCAKDLGRAIFGLVIPEGAFDIWGQGTMVTVSS
VL: EIVMTQSPSSLSASVGDRVTITCRASQSINNHLNWYQQKPGKAPKLLIYAASSLQSGVPSRFSGSGSGTDFTLTISSLQPADFATYHCQQSYGVPLTFGQGTKVEIK
In the case of B7, the binding result (in the test with A/USSR/90/1977 (H1N1) HA; in [7]; in test [2]; in test [8]; in test [3]; in test [4]) was “binds” in each case. For the same molecule, the “fold stronger binding activity than HB31 and HB34 (ELISA)” value in [9] was at least 4 fold.

B8: HB315 Fab (Fab, V domains shown)
VH: B7 VH
VL: B7 VL
In the case of B8, the binding result in [5] and in test [6] was “binds” throughout.

B9: CR9114 Fab (Fab, V domains shown)
VH: QVQLVQSGAEVKKPGSSVKVSCKSSGGTSNNYAISWVRQAPGQGLDWMGGISPIFGSTAYAQKFQGRVTISADIFSNTAYMELNSLTSEDTAVYFCARHGNYYYYSGMDVWGQGTTVTVSS
VL: QSALTQPPAVSGTPGQRVTISCSGSDSNIGRRSVNWYQQFPGTAPKLLIYSNDQRPSVVPDRFSGSKSGTSASLAISGLQSEDEAEYYCAAWDDSLKGAVFGGGTQLTVL
notes: source: Expi293F, transient co-transfection, purified (CaptureSelect CH1-XL)
For B9, the binding result in [5] was “binds”.

B10: 047-09 4F04 Fab (Fab, V domains shown)
VH: EVQLVESGGGLVQPGGSLRLSCAASGFTFNTYNMNWVRQAPGKGLEWVSYISSSSLSRYYADSVKGRFTISRDNAKNSLFLQMNSLRAEDTAVYYCARGAQAGYSSFFPPTTFWGQGTLVTVSS
VL: EIVMTQSPATLSVSPGEGVTLSCRASQSVSSNLAWYQQKPGQAPRLLIYGASTRATGIPARFSGSGSGTEFTLTISSLQSEDFAVYYCQQYYNWPPLTFGGGTKVEIK
Consider B10, for which the binding result in test [5] is on record as “binds”.
